Conditions in all cases: both partners purified
In experiment [1] the target is T1, C3b (proteolytic fragment of complement component C3) (human, UniProt P01024).
T1 construct: complement component C3, human, beta chain; complement component C3, human, alpha' chain (alpha chain after release of C3a); also called human C3b; source: generated from native plasma C3 by trypsin cleavage, purified
Put plainly: SPR; biotinylated C-terminally avi-tagged nanobody on streptavidin (CM500M chip); native C3, C3b and C3MA injected at 0.4-200 nM; 20 mM HEPES pH 7.5, 150 mM NaCl, 0.05% Tween 20, 25°C; 1:1 model; KD for native C3 called apparent. For orientation: Surface plasmon resonance follows binding to a sensor surface in real time, without labels.

The target of experiment [2] is T1, C3b (proteolytic fragment of complement …). Description: BLI; single concentration: nanobody variant held on anti-penta his (His1K) biosensors, transferred into 50 nM C3 or C3b for 180 s; 20 mM HEPES pH 7.5, 150 mM NaCl, 30°C. On the technique in general: BLI is a label-free optical method that tracks binding on a fibre tip over time.
The target is the same in experiment [3]. Description: SEC; C3 or C3b mixed with a two-fold molar excess of nanobody, 5 min on ice; Superdex 200 increase, 20 mM HEPES pH 7.5, 150 mM NaCl; peak fractions on SDS-PAGE.
For experiment [4] the target is unchanged. Put plainly: BLI; kinetics: EWE, EWEµH or EWEnH held on anti-penta his (His1K) biosensors, dilution series of C3b or iC3b; 20 mM HEPES pH 7.5, 150 mM NaCl, 30°C; 1:1 model.
For the next experiment, the target named is T2, iC3b (human).
T2 construct: complement component C3, human, beta chain; it says only that FI degrades C3b to iC3b; copies: + +
The description is as above.

Changes are numbered by the printed parent chain.

T2 sequence (chain, as listed by the source, chain 1 of 3): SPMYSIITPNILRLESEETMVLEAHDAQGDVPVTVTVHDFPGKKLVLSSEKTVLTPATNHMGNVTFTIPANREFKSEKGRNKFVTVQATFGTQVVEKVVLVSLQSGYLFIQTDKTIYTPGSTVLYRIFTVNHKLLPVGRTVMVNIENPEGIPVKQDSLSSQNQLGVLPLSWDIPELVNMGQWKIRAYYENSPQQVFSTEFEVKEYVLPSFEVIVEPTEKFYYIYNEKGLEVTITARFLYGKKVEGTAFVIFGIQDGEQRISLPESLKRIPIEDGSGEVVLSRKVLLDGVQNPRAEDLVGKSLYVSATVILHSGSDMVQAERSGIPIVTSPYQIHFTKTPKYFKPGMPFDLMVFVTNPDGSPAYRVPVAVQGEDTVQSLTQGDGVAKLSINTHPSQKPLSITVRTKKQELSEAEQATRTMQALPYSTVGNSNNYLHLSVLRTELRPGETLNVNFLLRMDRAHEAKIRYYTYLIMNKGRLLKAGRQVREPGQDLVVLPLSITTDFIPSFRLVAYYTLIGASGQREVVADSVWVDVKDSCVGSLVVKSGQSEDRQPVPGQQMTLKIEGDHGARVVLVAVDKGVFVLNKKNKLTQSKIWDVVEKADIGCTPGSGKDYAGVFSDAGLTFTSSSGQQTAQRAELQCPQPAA
T2 sequence (chain, as listed by the source, chain 2 of 3): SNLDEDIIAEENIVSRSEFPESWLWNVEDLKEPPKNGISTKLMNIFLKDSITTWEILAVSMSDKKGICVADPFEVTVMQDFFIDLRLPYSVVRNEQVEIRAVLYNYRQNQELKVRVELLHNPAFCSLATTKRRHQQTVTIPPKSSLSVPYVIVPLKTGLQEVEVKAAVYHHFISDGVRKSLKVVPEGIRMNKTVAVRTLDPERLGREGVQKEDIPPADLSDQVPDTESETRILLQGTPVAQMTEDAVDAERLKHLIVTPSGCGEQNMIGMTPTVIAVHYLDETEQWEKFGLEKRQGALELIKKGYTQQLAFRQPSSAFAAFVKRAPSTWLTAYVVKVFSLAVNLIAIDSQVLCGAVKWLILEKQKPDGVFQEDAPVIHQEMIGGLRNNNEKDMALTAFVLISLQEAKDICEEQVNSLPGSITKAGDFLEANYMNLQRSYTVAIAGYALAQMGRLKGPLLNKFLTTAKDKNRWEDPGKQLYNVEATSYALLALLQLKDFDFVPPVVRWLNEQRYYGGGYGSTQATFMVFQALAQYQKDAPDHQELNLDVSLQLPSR
T2 sequence (chain, as listed by the source, chain 3 of 3): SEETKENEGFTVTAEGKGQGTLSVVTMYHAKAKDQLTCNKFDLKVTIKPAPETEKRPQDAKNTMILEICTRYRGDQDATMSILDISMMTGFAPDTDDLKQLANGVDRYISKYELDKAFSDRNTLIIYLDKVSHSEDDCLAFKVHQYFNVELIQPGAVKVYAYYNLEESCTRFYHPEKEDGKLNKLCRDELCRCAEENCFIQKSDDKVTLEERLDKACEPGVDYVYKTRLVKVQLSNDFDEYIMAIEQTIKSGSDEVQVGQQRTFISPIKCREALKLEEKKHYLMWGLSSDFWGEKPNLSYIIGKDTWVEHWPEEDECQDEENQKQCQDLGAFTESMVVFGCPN

B1: avi-tagged, biotinylated EWE nanobody (VHH)
VHH: QVQLVETGGGLVQAGGSLRLSCAASGSIFSINAMGWFRQAPGKEREFVATINRSGGRTYYADSVKGRFTISRDNGKNMVYLQMHSLKPEDTAIYYCAAGTGWSPQTDNEYNYWGQGTQVTVSS
notes: hC3Nb1 nanobody; as the nanobody piece of m6; also called avi-tagged version of EWE; source: purified similarly to EWE (bacteria; HisTrap, Source 15S, SEC) and biotinylated; not shown: Avi tag, C-terminal, kept
Regarding B1, the Kd in experiment [1] was 2.2 nM.

B2: hC3Nb1 Q1N (VHH)
VHH: B1 VHH with Q1N, I31L
notes: hC3Nb1 nanobody with the N-terminal glutamine mutated to asparagine; parent as the nanobody piece of m6; The printed calculated mass (14182.7) fits a protein without the N-terminal methionine (my reckoning against 14327.9 for m6); source: expressed in bacteria, purified
B2: the binding result in experiment [2] is on record as “binds”.

B3: hC3Nb1 nanobody, mammalian expressed (VHH)
VHH: B1 VHH with I31L
notes: hC3Nb1 nanobody without the N-terminal methionine; in the PDB entries 6EHG and 6RU5; pcDNA 3.1 vector; The calculated mass differs from that of the bacterial construct by more than a methionine, so tag or ends may differ; source: HEK293, transiently transfected, purified from conditioned media (HisTrap excel, ion exchange, SEC)
Turning to B3, the binding result in experiment [2] is reported as “binds”.

B4: hC3Nb1 nanobody, bacterially expressed (VHH)
VHH: B1 VHH with I31L
notes: N-terminal methionine, retained according to mass spectrometry; hC3Nb1 nanobody; in the PDB entries of its complexes with C3b (6EHG) and C3 (6RU5); pET-22b(+) plasmid; Held on anti-penta-His sensors in BLI; also called parental hC3Nb1; hC3bNb1; source: LOBSTR cells (bacteria), purified (HisTrap, Source 15S, SEC)
Consider B4, for which the binding result in experiment [3] is “binds”.

B5: EWE-hC3Nb1 nanobody, bacterially expressed (VHH)
VHH: B1 VHH
notes: hC3Nb1 nanobody, beginning with its N-terminal glutamine (Gln4 of EWE); as the nanobody piece of m6; also called EWE nanobody; source: LOBSTR cells (bacteria), purified (HisTrap, Source 15S, SEC); not shown: 6xHis, C-terminal, kept
With B5, the figures for the Kd (in experiment [4]; with iC3b) were 3 nM and 3.6 nM, respectively.

B6: hC3Nb1 ΔQ1 (VHH)
VHH: VQLVETGGGLVQAGGSLRLSCAASGSIFSLNAMGWFRQAPGKEREFVATINRSGGRTYYADSVKGRFTISRDNGKNMVYLQMHSLKPEDTAIYYCAAGTGWSPQTDNEYNYWGQGTQVTVSS
notes: hC3Nb1 nanobody with the N-terminal glutamine deleted; parent as the nanobody piece of m6; The printed calculated mass (14068.6) fits a protein without the N-terminal methionine (my reckoning against 14327.9 for m6); source: expressed in bacteria, purified
In the case of B6, the binding result in experiment [2] is “binds”.

The values above are taken from article PMC9352930, “Structure-Guided Engineering of a Complement Component C3-Binding Nanobody Improves Specificity and Adds Cofactor Activity” (Frontiers in Immunology, 2022).
